# Target: biotinylated recombinant SARS-CoV-2 RBD (SARS-CoV-2) (UniProt P0DTC2)
# Assay: BLI
substance,measurement,value
soluble N. vison ACE2 (domain or fragment),Kd,1500 nM

# — publication doi:10.1101/2025.02.12.637862
